The source of these data is article PMC9843451.

Common to all, as to assay: purified protein
Type in all cases: biochemical, Rhodopseudomonas palustris

Substrate in data set [1]: O=C1CCCCO1
The following applies: 2.5 mM bicine pH 8.3, 150 mM NaCl, 1 mM CaCl2, DMSO, error is 95% CI.

Substrate in data set [2]: CCCCCCC1CCC(=O)O1
Conditions: 2.5 mM bicine pH 8.3, 150 mM NaCl, 1 mM CaCl2, DMSO, error is 95% CI.

Substrate in data set [3]: O=C1CCc2ccccc2O1
The following applies: 50 mM Tris pH 8, 150 mM NaCl, 1 mM CaCl2, DMSO, error is 95% CI.

B1: Rpa3624 (Rhodopseudomonas palustris CGA009) (protein)
chain: MSNVRVLATDLAFPEGPVVMPDGSVVLVEIRAQQLTRVWPDGRKEVVAKVPGGPNGAALGPDGKMYICNNGGFGWFPSRGTMMPGAPAPHEYIGGSIQRVDLQSGEVETLFDKCGEHPLKGPNDLVFDKHGGLWFTDLGKRRARDMDVGAAYYIKPGMTEITEQVFGTLPLNGIGLSPDEATMYAAETPTGRLWAFDLSGPGEVKPRDVIYRGEKGKPICGLGGYQMFDSLAVEASGNVCVATLVSGCISVIAPDGTLVEQVPTGDRVTTNIAFGGPDLKTAYITLSGKGELIAMDWSRPGLPLNFLNK
Consider B1, for which the Km in “purified protein [1]” is listed as 74.0 (40.7–133) mM; in the data set “purified protein [2]”, 2.36 (1.15–4.82) mM; in the data set “purified protein [3]” it was 1.85 (0.976–3.77) mM. Also, the kcat turned out to be 754 s⁻¹ in “purified protein [1]”, 135 s⁻¹ in “purified protein [2]” and 308 s⁻¹ in “purified protein [3]”. Moreover, the catalytic efficiency (kcat/Km) came out at 10200 M⁻¹ s⁻¹ in “purified protein [1]”, 57200 M⁻¹ s⁻¹ in “purified protein [2]” and 166000 M⁻¹ s⁻¹ in “purified protein [3]”.

In general, kcat refers to the number of substrate molecules converted per active site and unit of time at saturation. What is called kcat/Km is the second-order rate constant that governs catalysis at low substrate concentration.
